Laboratory results reported in publication PMC7267776.

Target: AcrB (from pET21a-acrBΔHis) (E. coli) (UniProt P31224)
Test: cryo-EM structure; AcrB/DARPin and AcrBZ/DARPin reconstituted in saposin A discs with E. coli lipids, with or without additional 5% cardiolipin; 20 mM Tris-Cl pH 7.5, 150 mM NaCl; 2 mM minocycline (AcrB) or 1 mM chloramphenicol (AcrBZ) added

In the case of “AcrB (from pET21a-acrBΔHis) (from UniProt P31224) (natural protein)”, the stoichiometry N is reported as 3.
